The record followed here is patent US20180258175A1 (ABLEXIS, published 2018).

In assay [1] the target is T1, human CD115 extracellular domain (Sino Biological 10161-H08H) (human, UniProt P07333 20-517).
T1 construct: extracellular domain; bought recombinant protein; also called huCD115; hu-CD115
Nature of the assay: ELISA, supernatant on huCD115.

Assay [2] has as its target T2, native CD115 on OCI-AML5 cells (UniProt P07333 20-972, limits assumed).
T2 construct: whole, on cells; cell line endogenous receptor; also called CD115 expressed on OCI-AML5 cells; CD115 expressing AML5 cells
Nature of the assay: FACS, supernatant on OCI-AML5 cells. In general terms: Flow cytometry measures light scatter and fluorescence of single cells or particles in a stream.

Assay [3] deals with T1, human CD115 extracellular domain (Sino …). Nature of the assay: competition ELISA, competitor TMR 20A. (In general: An ELISA detects its analyte on a solid surface through an enzyme-linked reagent.)
Assay [4] shares this target. Description: competition ELISA, competitor TMR 24A.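 Also: clonal anti-huCD115 hybridoma supernatant antibodies bound with a competitor mouse antibody present, and failure to bind puts a clone in that competitor's epitope bin; low signal means same epitope bin as the mouse competitor antibody.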
The target is the same in assay [5]. Nature of the assay: competition ELISA, competitor TMR 35A.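 Also: clonal hybridoma supernatant antibodies added to wells after the competitor mouse antibody, lost binding signal puts an antibody in that competitor's epitope bin; low signal means same epitope bin as the mouse competitor antibody.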
The target is the same in assay [6]. Description: competition ELISA, competitor TMR 44B.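 Also: binding of antibodies from single-clone hybridoma supernatants to huCD115 measured with the competitor antibody present, a drop in signal meaning both share an epitope bin; low signal means same epitope bin as the mouse competitor antibody.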
For assay [7] the target is unchanged. Description: competition ELISA, competitor TMR 95A.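 Also: clonal anti-huCD115 hybridoma supernatants tested for binding while a competitor mouse antibody is present, where failure to bind assigns them to that competitor's epitope bin; low signal means same epitope bin as the mouse competitor antibody.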
Assay [8] shares this target. Description: competition ELISA, competitor TMR 100A.
For assay [9] the target is unchanged. Description: SPR ProteOn, supernatant mAb captured on anti-mouse IgG, Hu CD115 analyte.
The target in assay [10] is T2, native CD115 on OCI-AML5 cells. Nature of the assay: cell-based or functional assay.
For assay [11], the target named is T1, human CD115 extracellular domain (Sino …). Description: SPR ProteOn, mAb amine coupled, Hu CD115 analyte.
Assay [12] has the same target. Description: ELISA, blocking of biotin-CSF-1 binding to coated hu-CD115.

B1: CCL-216A (antibody, V domains shown)
VH: QVQLQESGPGLVKPSETLSLTCTVSGDSISNYYWSWIRQPAGKGLEWIGRIYTSGSTNNNPSLKSRVTMSVDTSKNQFSLKLSSVTAADTAVYYCARERINWFDPWGQGTLVTVSS
VL: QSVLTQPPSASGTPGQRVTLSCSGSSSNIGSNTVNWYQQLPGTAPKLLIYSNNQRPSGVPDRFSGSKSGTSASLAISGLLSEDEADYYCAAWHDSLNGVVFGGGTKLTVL
notes: AlivaMab chimeric IgG, human lambda LC
With B1, the binding result in [1] and in assay [2] was “binds” throughout.

B2: CCL-328A (antibody, V domains shown)
VH: QVQLQESGPGLVKPSETLSLTCTVSGGSISSYYWSWIRQPAGKGLEWIGRIYTSGSTNYNPSLKSRVTMSIDTSKNQFSLKLSSVTAADTAVYYCARSRLGIFDYWGQGTLVTVSS
VL: not shown
notes: as for B1
B2: the binding result in assay [1] and in [2] was “binds” throughout.

B3: CCK-465A (antibody, V domains shown)
VH: QVQLQESGPGLVKPSETLSLSCTVSGGSISSYYWSWIRQPAGKGLEWIGRIYTSGSTNYNPSLKSRVTMSVDTSKNQFSLKLSSVTAADTAVYYCARDRSFYGMDVWGQGTTVTVSS
VL: DIQMTQSPSSLSASVGDRVTITCRASQGFSNYLAWYQQKPGKVPKLLIYAASTLQSGVPSRFSGSGSGTDFTLTISSLQPEDVATYYCQKYNSAPLTFGGGTKVEIK
notes: AlivaMab chimeric IgG, human kappa LC
Take B3: the “signal vs NO COMP=100” value in assay [3] turned out to be 78%; in assay [4], 81%; in assay [5], 88%; in [6], 8%; in assay [7], 41%; in assay [8], 92%. The Kd in assay [9] is 1.41 nM. For the same molecule, in assay [9], the koff was found to be 0.000749 s⁻¹. This molecule displayed a kon in assay [9] of 531000 M⁻¹ s⁻¹.

B4: CCL-213A (antibody, V domains shown)
VH: QVQLQESGPGLVKPSETLSLTCTVSGGSISSYYWSWIRQPAGKGLEWIGRIYTSGSTKNPSLKSRVTMSVDTSKNQFSLKLSSVTAADTAVYYCARLTVVGALDYWGQGTLVTVSS
VL: not shown
notes: as for B1
Take B4: the binding result in assay [1] and in [2] was “binds” throughout.

B5: CCK423A-IgG1κ (fully human) (antibody, V domains shown)
VH: QVQLEQSGAEVKRPGASVKVSCKASGYTFTGYYMHWVRQAPGQGLEWMGWINPNRGDTNYAQKFQGRVTMTRDTSISTAYMELSRLRSDDTAVYYCARDLEGGGPFDYWGQGTLVTVSS
VL: DIVMTQTPLSLPVTPGEPASISCRSSQSLLDSDDGNTYLDWYLQKPGQSPQLLIYTLSYRASGVPDRFSGSGSGTDFTLKISRVEAEDVGVYYCMQRIEFPSTFGQGTRLEIK
notes: also called Human IgG1κ; CCK423A-I IgG1κ
For B5, the “IC50, inhibition of CSF-1 induced P-Tyr on CD115” value in assay [10] came to 0.068 nM. For the same molecule, in [11], binding was put at a Kd of 1.2 nM, the koff came to 0.017 s⁻¹ and the kon was 1.2e+07 M⁻¹ s⁻¹. This molecule also yielded an IC50 in assay [12] of 0.146 nM.

B6: CCK423A-IgG2κ (fully human) (antibody, V domains shown)
VH: QVQLEQSGAEVKRPGASVKVSCKASGYTFTGYYMHWVRQAPGQGLEWMGWINPNRGDTNYAQKFQGRVTMTRDTSISTAYMELSRLRSDDTAVYYCARDLEGGGPFDYWGQGTLVTVSS
VL: DIVMTQTPLSLPVTPGEPASISCRSSQSLLDSDDGNTYLDWYLQKPGQSPQLLIYTLSYRASGVPDRFSGSGSGTDFTLKISRVEAEDVGVYYCMQRIEFPSTFGQGTRLEIK
notes: also called Human IgG2κ
For the molecule B6, the “IC50, inhibition of CSF-1 induced P-Tyr on CD115” value in [10] turned out to be 0.059 nM. In [11], this molecule displayed a Kd of 1.3 nM, a koff of 0.014 s⁻¹ and a kon of 1.3e+07 M⁻¹ s⁻¹. This molecule also showed an IC50 in assay [12] of 0.253 nM.

B7: CCL-332A (antibody, V domains shown)
VH: EVQLVESGGGLVQPGGSLRLSCAASGFTFSSYSMNWVRQAPGKGLEWVSYISSSSSTIYYADSVKGRFTISRDNAKNSLYLQMNSLRDEDTAVYYCARDYYGSSGYYYPHAFDIWGQGTMVTVSS
VL: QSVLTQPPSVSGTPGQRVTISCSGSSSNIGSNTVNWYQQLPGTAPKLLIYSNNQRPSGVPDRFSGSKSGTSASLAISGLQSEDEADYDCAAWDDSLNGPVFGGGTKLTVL
notes: as for B1
Take B7: the binding result in assay [1] and in assay [2] was “binds” each time.

B8: CCL-309A (antibody, V domains shown)
VH: EVQLVESGGGLVQPGGSLRLSCAASGFTFSTYSMNWVRQAPGKGLEWVSYISSSSAIIYYADSVKGRFTISRDNAKNSLYLQMNSLRDEDTAVYYCARDLPITMIVVVMPDAFDIWGQGTMVTVSS
VL: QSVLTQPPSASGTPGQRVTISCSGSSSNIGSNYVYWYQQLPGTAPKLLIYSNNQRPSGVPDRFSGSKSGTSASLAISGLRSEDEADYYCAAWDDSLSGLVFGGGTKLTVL
notes: as for B1
As to B8, the binding result in assay [1] and in assay [2] was “binds” in each case.

B9: CCL-337A (antibody, V domains shown)
VH: QVQLQESGPGLVKPSETLSLTCTVSGGSINSYYWSWIRQPAGKGLEWIGRIYTSGNTNYNPSLKSRVTMSVDTSKNLFSLKLSSVTAADTAVYYCARERLTGYFDYWAQGTLVTVSS
VL: not shown
notes: as for B1
For B9, the binding result in [1] and in [2] was “binds” throughout.

B10: CCL-205A (antibody, V domains shown)
VH: QVQLQESGPGLVKPSETLSLTCTVSGGSISSYYWSWIRQPAGKGLEWIGRIYISGSIYNNPSLKSRVTMSVDTSKNQFSLKLSSVTAADTAVYYCARDRVGMTFDIWGQGTMVTVSS
VL: not shown
notes: as for B1
In the case of B10, the binding result in assay [1] and in assay [2] was “binds” throughout.

B11: CCL-346A (antibody, V domains shown)
VH: QVQLQESGPGLVKPSETLSLTCTVSGGSISSYYWSWIRQPAGKGLEWIGRFYTSGSTSCNPSLKSRVTMSVDTSKNQFSLKLSSVTAADTAVYYCAREGILGYFDYWGQGTLVTVSS
VL: not shown
notes: as for B1
B11: the binding result in [1] and in [2] was “binds” each time.

B12: CCL-247A (antibody, V domains shown)
VH: QVQLQESGPGLVKPSETLSLTCTVSDGSISSYYWSWIRQPAGKGLEWIGRIYTSGSTNYNPSLKSRVTMSVDTSKNQFSLKLTSVTAADTAVYYCARERITSFFDPWGQGTLVTVSS
VL: not shown
notes: as for B1
With B12, the binding result in [1] and in assay [2] was “binds” in each case.

B13: CCL-211A (antibody, V domains shown)
VH: QVQLQESGPGLVKPSETLSLTCTVSGGSISSYYWSWIRQPAGKGLEWIGRIYISGTTNYNPSLMSRVTMSVDTSKNQFSLKLTSVTAADTAVYYCARERLVRAFDIWGQGTMVTVSS
VL: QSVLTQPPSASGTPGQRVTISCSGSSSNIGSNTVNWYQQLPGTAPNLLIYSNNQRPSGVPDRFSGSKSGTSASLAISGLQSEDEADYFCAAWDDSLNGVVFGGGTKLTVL
notes: as for B1
In the case of B13, the binding result in assay [1] and in assay [2] was “binds” each time.

B14: CCL-204A (antibody, V domains shown)
VH: QVQLQESGPGLVKPSETLSLTCTISSGSISSYYWSWIRQPAGKGLEWIGRIYTSGSTNYHPSLKSRVTMSVDTSKNHFSLKLTSVTAADTAVYYCARERLTGFFDYWGQGTLVTVSS
VL: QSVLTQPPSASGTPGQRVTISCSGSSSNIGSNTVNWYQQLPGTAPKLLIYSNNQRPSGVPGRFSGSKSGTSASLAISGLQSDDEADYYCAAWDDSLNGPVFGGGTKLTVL
notes: as for B1
B14: the binding result in assay [1] and in assay [2] was “binds” each time.

B15: CCL-325A (antibody, V domains shown)
VH: QVQLQESGPGLVKPSETLSLTCTVSGGSISSYYWSWIRQSAGKGLEWIGHIYTSGSTNYNPSLKSRVTMSVDTSKNQFSLKLSSVTAADTAVYYCARERTVVTYFDYWGQGTLVTVSS
VL: not shown
notes: as for B1
In the case of B15, the binding result in [1] and in assay [2] was “binds” each time.

B16: CCL-321A (antibody, V domains shown)
VH: EVQLVESGGGLVQPGGSLRLSCAASGFTFSSYSMNWVRQAPGKGLEWVSYISSSSSTIYYSDSVRGRFTISRDNAKNSLYLQMDSLRDEDTAVYYCARDSTMIVVVKVPDAFDIWGQGTMVTVSS
VL: not shown
notes: as for B1
Regarding B16, the binding result in assay [1] and in [2] was “binds” throughout.

B17: CCK-467A (antibody, V domains shown)
VH: EVQLVESGGGLVKPGGSLRLSCAASGFTFSSYSMNWVRQAPGKGLEWVSSISSSSSYIYYADSVKGRFTISRDNAKNSLFLQMNSLRAEDTAVYYCARGGSFPYNWFDPWGQGTLVTVSS
VL: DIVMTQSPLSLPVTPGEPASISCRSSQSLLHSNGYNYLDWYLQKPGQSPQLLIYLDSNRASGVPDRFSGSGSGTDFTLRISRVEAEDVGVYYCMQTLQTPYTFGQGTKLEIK
notes: as for B3
Take B17: the “signal vs NO COMP=100” value in assay [3] was determined as 96%; in assay [4], 58%; in assay [5], 83%; in assay [6], 22%; in [7], 46%; in assay [8] it was 102%. For the same molecule, the Kd in [9] was 0.65 nM. The koff in assay [9] was found to be 1.48e-05 s⁻¹. Further, the kon in [9] was determined as 23000 M⁻¹ s⁻¹.

B18: CCK-541A (antibody, V domains shown)
VH: QVQLQESGPGLVKPSETLSLTCTVSGASISTYFWSWLRQPPGKGLEWIGYIFYSGSINYNPSLKSRVTISVDTSKNQFSLELSSVTAADTAVYYCARDRTFYGMDVWGQGTTVTVSS
VL: EIVLTQSPGTLSLPPGERATLSCRASQNVSSTYLAWYHQKPGQAPRLLIYGASSRATGIPDRFSGSGSGTDFTLTISRLEPEDFAVYYCQQYGSSPRTFGQGTKVEIK
notes: as for B3
Take B18: the “signal vs NO COMP=100” value in assay [3] was found to be 34%; in [4], 109%; in [5] it was 111%; in assay [6], 15%; in assay [7], 42%; in assay [8] it was 93%. Also, in assay [9], the Kd was 1.4 nM. This molecule displayed a koff in assay [9] of 0.000374 s⁻¹. The same molecule gave a kon in assay [9] of 267000 M⁻¹ s⁻¹.

What is called Kd is the equilibrium constant for the complex coming apart. A higher Kd goes with weaker binding. As a reminder, the koff is the first-order rate constant of dissociation. Read a low koff as a long-lived complex. For orientation: kon means the rate constant with which the complex forms. Low readings indicate slower complex formation, high ones faster complex formation. For orientation: IC50 means the concentration that inhibits the measured activity by half. High values mean lower potency, low ones higher potency.
